The source of these data is paper PMC3521694 (PLoS Pathogens, 2012).

This test addresses full-length VipD (vacuolar protein sorting inhibitor protein D) (Legionella pneumophila, UniProt Q5ZRP9 1-621). Put plainly: ITC; […]; 25°C; 20 mM Tris-HCl pH 7.5, 100 mM NaCl; iTC200. The settings on record: both partners purified.

B1: Rab5b(1-190):GDP (domain or fragment)
chain: MTSRSTARPNGQPQASKICQFKLVLLGESAVGKSSLVLRFVKGQFHEYQESTIGAAFLTQSVCLDDTTVKFEIWDTAGQERYHSLAPMYYRGAQAAIVVYDITNQETFARAKTWVKELQRQASPSIVIALAGNKADLANKRMVEYEEAQAYADDNSLLFMETSAKTAMNVNDLFLAIAKKLPKSEPQNLG
notes: also called wild-type Rab5b(1-190)
As a reminder, the Kd is the equilibrium constant for the complex coming apart. A higher Kd goes with a looser complex. With B1, the Kd turned out to be 3150 nM.

B2: Rab22a(1-175):GDP (domain or fragment)
chain: MALRELKVCLLGDTGVGKSSIVWRFVEDSFDPNINPTIGASFMTKTVQYQNELHKFLIWDTAGQERFRALAPMYYRGSAAAIIVYDITKEETFSTLKNWVKELRQHGPPNIVVAIAGNKCDLIDVREVMERDAKDYADSIHAIFVETSAKNAININELFIEISRRIPSTDANLPS
notes: also called wild-type Rab22a(1-175)
Turning to B2, binding was put at a Kd of 123 nM.
